Biological target: 人可溶性BLyS (human soluble BLyS) (human) (UniProt Q9Y275)
Experiment: cell-based or functional assay

IC50 of inhibition of the NF-κB signal downstream of human BLyS binding TACI (luciferase reporter gene assay): 0.0517 µg/mL
Substance: Benlysta (antibody)
